Laboratory results published in patent US20210388081A1 (Memorial Sloan Kettering, published 2021).

What was measured:
[1] = target: T1, FcRL6, overexpressed on 3T3 cells (UniProt Q6DN72 20-434, limits assumed); assay: phage clone on 3T3-FcRL6 cells
T1 construct: whole, on cells
T1 sequence (looked up): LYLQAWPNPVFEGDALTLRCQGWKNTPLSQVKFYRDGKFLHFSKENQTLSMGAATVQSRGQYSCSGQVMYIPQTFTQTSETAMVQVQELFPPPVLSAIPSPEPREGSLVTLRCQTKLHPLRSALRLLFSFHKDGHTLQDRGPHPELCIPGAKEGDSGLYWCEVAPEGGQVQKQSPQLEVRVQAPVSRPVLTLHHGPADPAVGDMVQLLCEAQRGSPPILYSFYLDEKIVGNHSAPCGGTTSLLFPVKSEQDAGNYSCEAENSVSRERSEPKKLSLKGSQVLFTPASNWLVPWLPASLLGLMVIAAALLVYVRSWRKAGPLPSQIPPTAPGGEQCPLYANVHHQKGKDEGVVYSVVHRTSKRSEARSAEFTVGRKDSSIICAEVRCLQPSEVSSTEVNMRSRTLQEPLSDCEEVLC

[2] = target: T2, FcRL1, overexpressed on 3T3 cells (UniProt Q96LA6 17-429, limits assumed); assay: phage clone on 3T3-FcRL1 cells
T2 construct: whole, on cells
T2 sequence (looked up): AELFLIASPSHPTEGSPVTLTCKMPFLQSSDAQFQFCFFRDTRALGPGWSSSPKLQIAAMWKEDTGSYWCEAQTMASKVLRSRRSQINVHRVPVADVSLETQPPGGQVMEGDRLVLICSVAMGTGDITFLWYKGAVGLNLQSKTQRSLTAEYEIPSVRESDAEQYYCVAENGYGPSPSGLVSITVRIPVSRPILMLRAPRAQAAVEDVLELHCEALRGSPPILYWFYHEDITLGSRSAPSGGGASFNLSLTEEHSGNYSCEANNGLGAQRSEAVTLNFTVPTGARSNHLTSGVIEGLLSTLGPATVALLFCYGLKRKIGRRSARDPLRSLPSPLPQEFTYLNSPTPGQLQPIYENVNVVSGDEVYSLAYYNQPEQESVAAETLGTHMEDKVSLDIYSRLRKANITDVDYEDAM

SLAMF9 protein = SLAMF9 protein (UniProt Q96A28 19-236, limits assumed); assay: phage clone on SLAMF9 protein

Measured: binding result

Chain of SLAMF9 protein (Q96A28 19-236 limits assumed): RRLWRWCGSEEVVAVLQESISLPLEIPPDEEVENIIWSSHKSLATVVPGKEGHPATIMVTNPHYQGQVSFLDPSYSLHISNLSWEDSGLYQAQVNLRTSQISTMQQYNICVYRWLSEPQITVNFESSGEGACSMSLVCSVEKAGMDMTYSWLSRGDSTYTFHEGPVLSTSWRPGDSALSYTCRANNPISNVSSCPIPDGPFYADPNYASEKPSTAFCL

B1: ET200-108 (scFv)
scFv: QSVLTQPPSVSAPPGQKVTISCSGSSSNIGNNYVSWYQQFPGTAPKLLIYDNNKRPSGISDRFSGSKSGTSATLGIAGLQTGDEADYYCGTWDTSLSGFYVFGSGTKVTVLGSRGGGGSGGGGSGGGGSLEMAEVQLVQSGAEVKKPGASVKVSCKASGYTFTSYTISWVRQAPGQGLEWMGWISTYNGLTNYAQNLQGRVTMTTDTFTTTAYMELRSLRSDDTAVYYCVREGSPDYGDFASFDYWGQGTLVTVSSTSGQAGQHHHHHHGAYPYDVPDYAS
notes: screened as phage clone; entry is VL-linker-VH-His tag-HA tag
no binding: all assays above

B2: ET200-113 (scFv)
scFv: QSVVTQPPSVSAAPGQKVTISCSGSSSNIGNNYVSWYQQLPGTAPKLLIYDNNKRPSGIPDRFSGSKSGTSATLGITGLQTGDEADYYCGTWDSSLSAAYVFGTGTKVTVLGSRGGGGSGGGGSGGGGSLEMAQVQLVQSGAEVKKPGASVKVSCKASGYSFTSYTISWVRQAPGQGLEWMGWVSTYNGLRNYAQNLQGRVTMTTDTLTTTAYMELRSLRSDDTAVYYCVREGSPDYGDFAAFDYWGQGTLVTVSSTSGQAGQHHHHHHGAYPYDVPDYAS
notes: as for B1
no binding: all assays above

B3: ET200-115 (scFv)
scFv: QSVLTQPPSVSGAPGQRVTISCTGSSSNIGARYDVHWYQQLPGTAPRLLISANYDRPSGVPDRFSGSKSGTSASLAITGLQAEDEADYYCQSYDSSVSAWVFGGGTKVTVLGSRGGGGSGGGGSGGGGSLEMAEVQLVQSGAEVKEPGASVRISCQASGYNFISYYMHWVRQAPGQGLEWMGTINPGSGETDYSQKLQGRVTMTRDPSTGTFDMGLSSLTSGDTAVYYCATGLIRGASDAFNIWGRGTMVTVSSTSGQAGQHHHHHHGAYPYDVPDYAS
notes: as for B1
no binding: all assays above

B4: ET200-109 (scFv)
scFv: LPVLTQPPSASATPGQRVTISCSGTTSNIGSNTVHWYQQLPGTAPKLLIYNNNQRPSGVPDRFSGSKSGTSASLAISGLRSEDEATYSCATWDDSLSGVVFGGGTKLTVLGSRGGGGSGGGGSGGGGSLEMAEVQLVQSGAEVKKPGSSVKVSCKASGGTFSSYAISWVRQAPGQGLEWMGGIIPIFGTANYAQKFQGRVTITADESTSTAYMELSSLRSEDTAVYYCARDPAYGDYEYDAFDIWGQGTMVTVSSTSGQAGQHHHHHHGAYPYDVPDYAS
notes: as for B1
no binding: all assays above

B5: ET200-102 (scFv)
scFv: QSVVTQPPSVSAAPGQKVTISCSGSSSNIGNNYVSWYQQLPGTAPKLLIYDNNKRPSGIPDRFSGSKSGTSATLGITGLQTGDEADYYCGTWDSSLSAYVFGTGTKVTVLGSRGGGGSGGGGSGGGGSLEMAQVQLVQSGAEVKKPGASVKVSCKASGYTFTNYALHWVRQAPGQGLEWMAWINGGNGNTKYSQNFQGRVTITRDTSASTAYMELSSLRSEDTAVYYCAKPEETAGTIHFDYWGQGTPVTVSSTSGQAGQHHHHHHGAYPYDVPDYAS
notes: as for B1
no binding: all assays above

B6: ET200-105 (scFv)
scFv: SYVLTQPPSVSVSPGQTASITCSGDRLTNKYVSWYQQKPGQSPVLVIYEDAKRPSGIPARFSGSNSGNTATLTISGTQAMDESEYYCQAWDSSVVVFGGGTKLTVLGSRGGGGSGGGGSGGGGSLEMAEVQLVESGGGLVQPGRSLRLSCAASGFTFDDYAMHWVRQAPGKGLEWVSGISWNSGSIGYADSVKGRFTISRDNAKNSLYLQMNSLRDEDTALYYCAKDRGGGVIVKDAFDIWGQGTMVTVSSTSGQAGQHHHHHHGAYPYDVPDYAS
notes: as for B1
no binding: all assays above

B7: ET200-104 (scFv)
scFv: NFMLTQPHSVSESPGKTVTISCTRSSGSIASNYVQWYQQRPGSAPTTVIYEDNQRPSGVPDRFSGSIDSSSNSASLTISGLKTEDEADYYCQSYDSSNVVFGGGTKVTVLGSRGGGGSGGGGSGGGGSLEMAEVQLVESGGGLVQPGGSLRLSCAASGFTFSSYEMNWVRQAPGKGLEWVSYISSSGSTIYYADSVKGRFTISRDNAKNSLYLQMNSLRAEDTAVYYCARWDYGMDVWGQGTTVTVSSTSGQAGQHHHHHHGAYPYDVPDYAS
notes: as for B1
no binding: all assays above

B8: ET200-112 (scFv)
scFv: QAVLTQPPSASGTPGQRVTISCSGSSSNIGSNTVNWYQQLPGTAPKLLMYSNDQRPSGVPDRFSGSKSGTSASLAISGLQSEDEADYYCAAWDDSLNGYVFAAGTQLTVLSSRGGGGSGGGGSGGGGSLEMAQVQLQQWGAGLLKPSETLSLTCAVYGGSFSGYYWSWIRQPPGKGLEWIGEINHSGSTNYNPSLKSRVTISVDTSKNQFSLKLSSVTAADTAVYYCAREGLDAFDIWGQGTMVTVSSTSGQAGQHHHHHHGAYPYDVPDYAS
notes: as for B1
no binding: all assays above

B9: ET200-103 (scFv)
scFv: QAVLTQPHSVSESPGKTVTISCTRSSGSIASNYVQWYQQRPGSAPTTVIYEDNQRPSGVPDRFSGSIDSSSNSASLTISGLKTEDEADYYCQSYDSTITVFGGGTKLTVLGSRGGGGSGGGGSGGGGSLEMAQVQLVQSGAEVKKPGSSVKVSCKASGGTFSSYAISWVRQAPGQGLEWMGGIIPIFGTANYAQKFQGRVTITADESTSTAYMELSSLRSEDTAVYYCAGEGYYDSSGYSNGDAFDIWGQGTMVTVSSTSGQAGQHHHHHHGAYPYDVPDYAS
notes: as for B1
no binding: all assays above

B10: ET200-107 (scFv)
scFv: QSVVTQPPSVSAAPGEKVTISCSGSNFNVGNNDVSWYQQLPGAAPKLLIYDNNKRPSGIPDRFSGSKSGTSATLDITGLHSDDEADYYCGTWDSSLNTGGVFGTGTKVTVLGSRGGGGSGGGGSGGGGSLEMAEVQLVQSGAEVKKPGASVKVSCKASGYTFTSYTISWVRQAPGQGLEWMGWISTYNGLTNYAQNLQGRVTMTTDTFTTTAYMELRSLRSDDTAVYYCVREGSPDYGDFASFDYWGQGTLVTVSSTSGQAGQHHHHHHGAYPYDVPDYAS
notes: as for B1
no binding: all assays above

B11: ET200-007 (scFv)
scFv: SYVLTQPLSVSVAPGKTARITCGGNNIGSKTVHWYQQKPGQAPVLVIYYDSDRPSGIPERFSGSNSGNTATLTISRVEAGDEADYYCQVWDSSSDHRVFGGGTKLTVLGSRGGGGSGGGGSGGGGSLEMAQVQLQESGPGLVKPSETLSLTCNVSGYSISSGYFWGWIRQPPGKGLEWIGSIYHSRSTYYNPSLKSRVTISVDTSKNQFSLKLNSVTAADTAVYYCARGYGYFDYWGQGTLVTVSSTSGQAGQHHHHHHGAYPYDVPDYAS
notes: as for B1
no binding: all assays above

B12: ET200-101 (scFv)
scFv: QAVLTQPPSASGAPGQRVTVSCSGSNSNIGSNYVNWYQQFPGTAPKLLMYSSSQRPSGVPDRFSGSKSGTSASLAISGLHSEDEADYYCATWDDSLNAWVFGGGTKLTVLGSRGGGGSGGGGSGGGGSLEMAEVQLVQSGAEVRKPGASVKVSCKTSGYTFTWYAIHWVRQAPGQRLEWMGWINAGSGNTKYSQKFQGRVTLTRDTSASTAYMELSSLRSDDTAVYYCARPNNYGSGGDVFDIWGQGTMVTVSSTSGQAGQHHHHHHGAYPYDVPDYAS
notes: as for B1
no binding: all assays above

B13: ET200-110 (scFv)
scFv: QSVLTQPPSASGTPGQRVTISCSGSSSNIGTNGVNWFQQFPGTAPKLLIYTNDQRPSGVPDRFSGSKSGTSASLAISGLQSADEADYYCAVWDHSLNGPVFGGGTKLTVLGSRGGGGSGGGGSGGGGSLEMAQVQLVQSGAEVKKPGSSVKVSCKASGGTFSSYAISWVRQAPGQGLEWMGGIIPIFGTANYAQKFQGRVTITADESTSTAYMELSSLRSEDTAVYYCARGAGFDAFDIWGQGTMVTVSSTSGQAGQHHHHHHGAYPYDVPDYAS
notes: as for B1
no binding: all assays above

B14: ET200-106 (scFv)
scFv: SYELTQPPAASGTPGQRVTISCSGGVSNIGSGALNWYQQLPGTAPKLLIYSYNQRPSGVSDRFSGSRSATSASLAISGLQSEDEADYYCATWDDSVNGWVFGGGTKLTVLGSRGGGGSGGGGSGGGGSLEMAEVQLVESGAEVKKPGDSVKVSCKPSGYNFLNYGINWVRQAPGQGLEWMGWISTYTGNTNYAQKLQGRVTFTTDTSTSTAYMEMRSLRSDDTAVYYCARQQGGGWYDVWGQGTLVTVSSTSGQAGQHHHHHHGAYPYDVPDYAS
notes: as for B1
no binding: all assays above
